What was measured:
[1] = target: T1, human Her2 (ECD)-Fc protein (human, UniProt P04626 23-652); assay: PE-ELISA, crude extract on antigen-coated plate
T1 construct: extracellular domain; Made in HEK293F cells; also called hHer2 (ECD)-Fc antigen; Her2 (ECD)-Fc antigen; not shown: TEV restriction site at the C-terminal of hHer2 (ECD); IgG1 Fc of the pFUSE-IgG1 vector
Method: (§1) (1) 10 μg Her2 (ECD)-Fc antigen (10 μg Fc in NaHCO₃ as control) dissolved in 100 mM NaHCO₃ (pH 8.2) was coupled to a NUNC plate then incubated at 4° C. overnight.
(§2) (5) The unbound antibody was washed off with PBST.
(§3) (6) When the OD value of the sample was over 3 times of the OD value of the control sample (Ratio+/−>3), the tested sample was determined to be a positive clone. […] Then all the positive clones were transferred to LA medium for plasmid extraction and sequencing.

[2] = target: T1, human Her2 (ECD)-Fc protein; assay: PE-ELISA, A405 of antigen well over control well
Method: as §1, §2, §3

Row | Binder | A405+ [1] | Ratio(+/-) [2]
1 | Nanobody No. 4 (VHH, not shown: tags (HA, His) implied by anti-HA detection and nickel column) VHH: QVQLQESGGGLVQPGGSLRLSCTASRFTFDDSDMAWYRQAPGNECELVSIISSDGSTYYADSVKGRFTISLDNTKSTVYLQMNSLKPEDTAVYYCAAHPLHYELGTCAALDYWGRGTQVTVSS | 1.97 A405 | 21.2
2 | Nanobody No. 3 (VHH, not shown: tags (HA, His) implied by anti-HA detection and nickel column) VHH: QVQLQESGGGSVQAGGSLRLSCTASGFTFDDSDVRWYRQAPGRECKLVSSISSDRSAYYEDSVKGRFTISQDNAKNTVYLQMNSLKPEDTAVYYCAAHPLHYELGTCAALDYWGRGTQVTVSS | 1.31 A405 | 13
3 | Nanobody No. 19 (VHH, also called 19; not shown: tags (HA, His) implied by anti-HA detection and nickel column) VHH: QVQLQESGGGSVQAGGSLRLSCTASGFTFDDSDSDMGWYRQAPGNECELVSSISSDGSTYYADSVKGRFTISQDNAKNTVYLQMNSLKPEDTAVYYCAAINSGYELGTCESLDYWGRGTQVTVSS | 1.77 A405 | 19.6
4 | Nanobody No. 21 (VHH, also called 21; not shown: tags (HA, His) implied by anti-HA detection and nickel column) VHH: QVQLQESGGGLVQPRGSLRLSCTASGFTFDDSDSDMGWYRQAPGNECELVSSISSDGSTYYADSVKGRFTISQDNAKNTVYLQMNSLKPEDTAVYYCAAINSGYELGTCESLDYWGRGTQVTVSS | 2.09 A405 | 20.3
5 | Nanobody No. 25 (VHH, also called 25; not shown: tags (HA, His) implied by anti-HA detection and nickel column) VHH: QVQLQESGGGSVQAGETLRLSCTASGFTFDDSDSDMGWYRQAPGNECELVSSISSDGSTYYADSVKGRFTISQDNAKNTVYLQMNSPKPEDTAVYYCAAINSGYELGTCESLDYWGRGTQVTVSS | 1.97 A405 | 22.4
6 | Nanobody No. 24 (VHH, also called 24; not shown: tags (HA, His) implied by anti-HA detection and nickel column) VHH: QVQLQESGGGSVQAGETLRLSCTASGFTFDDSDSDMGWYRQAPGNECELVSSISSDGSTYYADSVKGRFTISQDNAKNTVYLQMNSLKPEDTAVYYCAAINSGYELGTCESLDYWGRGTQVTVSS | 2.68 A405 | 23.7
7 | Nanobody No. 18 (VHH, also called 18; not shown: tags (HA, His) implied by anti-HA detection and nickel column) VHH: QVQLQESGGGSVQAGQTLRLSCTASGFTFDDSDMAWYRQAPGNECELVSKMRSDGSTYYADSVKGRFTISQDNAKNTVYLQMNSLKPEDTAVYYCAEDLPYGLGTCTSLDYWGRGTQVTVSS | 1.59 A405 | 19.2
8 | Nanobody No. 6 (VHH, not shown: tags (HA, His) implied by anti-HA detection and nickel column) VHH: QVQLQESGGGSVQAGETLRLSCTASGFTFDDSDMGWYRQAPGNECELVSHISSDGSTYYADSVKGRFTISQDNAKNTVFLQMNSLKPEDTAVYYCAADKDARGYELGTCESLDYWGRGTQVTVSS | 2.14 A405 | 23.4
9 | Nanobody No. 7 (VHH, not shown: tags (HA, His) implied by anti-HA detection and nickel column) VHH: QVQLQESGGGSVQAGETLRLSCTASGFTFDDSDMGWYRQAPGNECELVSTISSDGSTYYADSVKGRFTISQDNAKNTVYLQMNSLKPEDTAVYYCAADKDARGYELGTCESLDYWGRGTQVTVSS | 2.24 A405 | 27.4
10 | Nanobody No. 27 (VHH, also called 27; not shown: tags (HA, His) implied by anti-HA detection and nickel column) VHH: QVQLQESGGGSVQAGETLRLSCTASGFTFDDSDMGWYRQAPGNECELVSTISSDGSTYYADSVKGRFTISQDNAKNTVYLQMNSLKPEDTAVYYCAADHGGGYELGTCAALDYWGRGTQVTVSS | 1.66 A405 | 20.5
11 | Nanobody No. 12 (VHH, also called 12; not shown: tags (HA, His) implied by anti-HA detection and nickel column) VHH: QVQLQESGGGSVQAGETLRLSCTASGFTFDDSDMGWYRQAPGNECELVSTISSDGSTYYADSVKGRFTISQDNAKNTVYLQMNSLKPEDTAVYYCAADGHKYELGTCAALDYWGRGTQVTVSS | 2.18 A405 | 25.6
12 | Nanobody No. 20 (VHH, also called 20; not shown: tags (HA, His) implied by anti-HA detection and nickel column) VHH: QVQLQESGGGSVQAGGSLRLSCTASGFTFDDSVMGWFRKAPGNECELVSTISSDGSTYYADSVKGRFTISQDNAKNTVYLQMNNLKPEDTAVYYCAAINSGYELGTCESLDYWGRGTQVTVSS | 1.47 A405 | 10.2
13 | Nanobody No. 28 (VHH, also called 28; not shown: tags (HA, His) implied by anti-HA detection and nickel column) VHH: QVQLQESGGGLVQPGGSLRLSCAASGFTFGDSGMGWYRQAPGNECELVSSVSSDGSTYYADSVKGRFTISQDNAKNTVYLRMNSLKPEDTAVYYCAADDHKYELGTCEALDYWGRGTQVTVSS | 1.86 A405 | 23.3
14 | Nanobody No. 14 (VHH, also called 14; not shown: tags (HA, His) implied by anti-HA detection and nickel column) VHH: QVQLQESGGGSVQAGETLRLSCTASGFTFDDSDMGWYRQAPGNECELVSRISSDGSTYYADSVKGRFTISQDNAKNTVYLQMNSLKPEDTAVYYCAALEWEYELGTCEALDYWGQGTQVTVSS | 1.96 A405 | 24.4
15 | Nanobody No. 1 (VHH, not shown: tags (HA, His) implied by anti-HA detection and nickel column) VHH: QVQLQESGGGSVQAGETLRLSCTASGFTFDDSDMGWYRQAPGNECELVSTISSDGSTYYADSVKGRFTISQDNAKNTVYLQMNSLKPEDTAVYYCAAHPLHYELGTCAALDYWGRGTQVTVSS | 1.72 A405 | 22.3
16 | Nanobody No. 15 (VHH, also called 15; not shown: tags (HA, His) implied by anti-HA detection and nickel column) VHH: QVQLQESGGGSVQAGGSLRLSCTASRFTFDDSDMGWYRQAPGNECELVSTISSDGATYYANSVKGRFTISQDNAANTVYLQMNSLKPEDTAVYYCAALEWEYELGTCEALDYWGQGTQVTVSS | 2.27 A405 | 26.1
17 | Nanobody No. 11 (VHH, also called 11; not shown: tags (HA, His) implied by anti-HA detection and nickel column) VHH: QVQLQESGGGSVQAGETLRLSCTASGFTFDDSDMGWYRQAPGNECELVSHISSGGSTYYADSVKGRFTISQDNAKNTVYLQMNSLKPEDTAVYYCAADGSNYELGTCAALDYWGRGTQVTVSS | 1.88 A405 | 25.5
18 | Nanobody No. 2 (VHH, not shown: tags (HA, His) implied by anti-HA detection and nickel column) VHH: QVQLQESGGGSVQAGETLRLSCTASGFTFDDSDMGWYRQAPGNECELVSTISSDGSTYYADSVKGRFTISQDNAKNAVYLQMNSLKPEDTAVYYCAAHPLHYELGTCAALDYWGRGTQVTVSS | 1.53 A405 | 19.3
19 | Nanobody No. 30 (VHH, also called 30; not shown: tags (HA, His) implied by anti-HA detection and nickel column) VHH: QVQLQESGGGSVQAGETLRLSCTASGFTFDDSDMGWYRQAPGNECELVSTISSDGRTYYADSVKGRFAISQNNAKNTVYLQMNSLKPEDTAVYYCAADQHRYGLGTCEALDYWGRGTQVTVSS | 2.31 A405 | 23.9
20 | Nanobody No. 16 (VHH, also called 16; not shown: tags (HA, His) implied by anti-HA detection and nickel column) VHH: QVQLQESGGGSVQAGGSLRLSCTASGFTFDDSDMVWYRQAPGNECELVSRISSDGSTYYADSVKGRFTISQDNAKNTVYLQMNSLKPEDTAVYYCAALEWEYELGTCEALDYWGQGTQVTVSS | 1.79 A405 | 23.5
21 | Nanobody No. 8 (VHH, not shown: tags (HA, His) implied by anti-HA detection and nickel column) VHH: QVQLQESGGGSVQAGETLRLSCTASGFTFDESVMGWYRQAPGNECELVSTISSDGSTYYSNSVKGRFTISQDNAKNTVYLQMNSLKPEDTAVYYCAADDHTYELGTCEALNYWGRGTQVTVSS | 2.56 A405 | 28
22 | Nanobody No. 5 (VHH, not shown: tags (HA, His) implied by anti-HA detection and nickel column) VHH: QVQLQESGGGSVQAGGSLRLSCTVSGFSFDDSDMGWYRRAPGNECELVSGISRDGSTYYADSVKGRFTISQDNAKNWVYLQMNSLKPEDTAVYYCAAATYSDYVCDYWTQGTQVTVSS | 1.1 A405 | 12.7

Source: US20230263916A1 (NANOMAB TECHNOLOGY, published 2023)
